{"source": "paper PMC9001736", "about": "(2022)", "key": {"[1]": {"target": "T1, ZZ domain of HERC2 (HERC2ZZ, aa 2702–2755 with additional tryptophan at the C-terminus) (human, UniProt O95714 2702-2755)", "T1 chain": "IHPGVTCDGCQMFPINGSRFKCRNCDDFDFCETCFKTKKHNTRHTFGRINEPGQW", "assay": "value cited from earlier reference"}, "[2]": {"target": "T2, REEE peptide (mimetic of the Nt-R cargo degradation signal)", "T2 peptide": "REEE"}, "[3]": {"target": "T3, ZZ domain of p300 (p300ZZ) (human)", "T3 chain": "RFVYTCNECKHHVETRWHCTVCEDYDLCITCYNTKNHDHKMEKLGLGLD", "assay": "value cited from earlier reference"}}, "data": [{"binder": "ARTKQTARKSTG", "values": [{"measurement": "Kd", "setting": "[1]", "value": 15, "unit": "µM"}]}, {"binder": "p62 ZZ (protein) not shown", "values": [{"measurement": "Kd", "setting": "[2]", "value": 1.9, "unit": "µM"}]}, {"binder": "ARTKQTARKSTG (zinc-bound (2 Zn2+ expected for a ZZ finger); limits from the UniProt ZZ-type feature, construct limits not given)", "values": [{"measurement": "Kd", "setting": "[3]", "value": 8.8, "unit": "µM"}]}]}
